The record followed here is PMC2729365 (Nature structural & molecular biology, 2009).

As a reminder, the Kd is a measure of binding affinity in units of concentration. Low values mean a tighter complex, high ones a looser complex. As usually defined, the stoichiometry N is a count of units in the complex or per binding partner.

Series [1] deals with the molecule itself. Briefly: AUC.
Series [2] concerns the molecule itself. Briefly: AUC. The source holds these as a separate data set.

B1: GluR6 amino terminal domain (GluR6 R1R2 ATD, residues 1-389) expressed in wild type HEK293 cells (domain or fragment)
chain: TTHVLRFGGIFEYVESGPMGAEELAFRFAVNTINRNRTLLPNTTLTYDTQKINLYDSFEASKKACDQLSLGVAAIFGPSHSSSANAVQSICNALGVPHIQTRWKHQVSDNKDSFYVSLYPDFSSLSRAILDLVQFFKWKTVTVVYDDSTGLIRLQELIKAPSRYNLRLKIRQLPADTKDAKPLLKEMKRGKEFHVIFDCSHEMAAGILKQALAMGMMTEYYHYIFTTLDLFALDVEPYRYSGVNMTGFRILNTENTQVSSIIEKWSMERLQAPPKPDSGLLDGFMTTDAALMYDAVHVVSVAVQQFPQMTVSSLQCNRHKPWRFGTRFMSLIKEAHWEGLTGRITFNKTNGLRTDFDLDVISLKEEGLEKIGTWDPASGLNMTESQKGK
modifications: N-linked glycans at five sites, non uniform (complex) glycosylation
Turning to B1, binding in the series “AUC [1]” was characterised by a dissociation constant (Kd) of 11.3 µM. The “stoichiometry N” value in “AUC [2]” is 2.
